Data reported in patent publication US20200277400A1.
Values belong to the substance of their own block, whether it stands above or below them.

Assays:
[1] = target: meHER2(Hc-Lc):28ζ CAR; assay: flow cytometry, T cells pre-bound to meditope peptide, then protein L; untransduced control 0.50%
[2] = target: meHER2(Lc-Hc):28ζ CAR; assay: as above
[3] = target: meHER2(Hc-Lc):28ζ CAR; assay: flow cytometry, meditope-AF647 staining of lentivirally transduced primary human T cells; untransduced control 1.83%
[4] = target: meHER2(Lc-Hc):28ζ CAR; assay: as above
[5] = target: Fab (meditope-binding Fab, not further named); assay: method not stated
[6] = target: meHER2(Hc-Lc):28ζ CAR; assay: flow cytometry, T cells pre-bound to meditope peptide, then protein L; untransduced control 0.63%
[7] = target: meHER2(Lc-Hc):28ζ CAR; assay: as above
[8] = target: meHER2(Hc-Lc):28ζ CAR; assay: flow cytometry, T cells pre-bound to meditope peptide, then protein L; untransduced control 7.23%
[9] = target: meHER2(Lc-Hc):28ζ CAR; assay: as above
[10] = target: meHER2(Hc-Lc):28ζ CAR; assay: flow cytometry, protein L staining of lentivirally transduced primary human T cells; untransduced control 13.16%

Sequence of meHER2(Hc-Lc):28ζ CAR (heavy, as listed by the source limits assumed, chain 1 of 2): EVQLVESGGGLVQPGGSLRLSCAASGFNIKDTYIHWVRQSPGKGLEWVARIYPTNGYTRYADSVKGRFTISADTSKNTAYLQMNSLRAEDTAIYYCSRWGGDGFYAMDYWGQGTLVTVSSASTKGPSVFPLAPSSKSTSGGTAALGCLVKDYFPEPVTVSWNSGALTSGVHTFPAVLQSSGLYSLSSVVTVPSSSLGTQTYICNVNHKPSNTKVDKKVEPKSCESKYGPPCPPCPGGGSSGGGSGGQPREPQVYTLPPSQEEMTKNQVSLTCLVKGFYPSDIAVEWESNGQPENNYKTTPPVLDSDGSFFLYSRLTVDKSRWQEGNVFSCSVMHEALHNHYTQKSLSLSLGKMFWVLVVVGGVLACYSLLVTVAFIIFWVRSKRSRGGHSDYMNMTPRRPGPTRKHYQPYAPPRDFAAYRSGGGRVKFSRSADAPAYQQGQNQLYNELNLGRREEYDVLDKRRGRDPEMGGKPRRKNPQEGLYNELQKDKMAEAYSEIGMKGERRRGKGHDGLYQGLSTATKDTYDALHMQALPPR
Sequence of meHER2(Hc-Lc):28ζ CAR (light, as listed by the source limits assumed, chain 2 of 2): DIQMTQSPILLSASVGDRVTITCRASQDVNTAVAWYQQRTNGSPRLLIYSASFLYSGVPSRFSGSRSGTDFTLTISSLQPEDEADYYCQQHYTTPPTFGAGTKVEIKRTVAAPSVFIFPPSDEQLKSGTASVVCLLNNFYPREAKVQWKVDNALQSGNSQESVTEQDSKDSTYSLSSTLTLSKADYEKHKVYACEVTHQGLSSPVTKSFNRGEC
Sequence of meHER2(Lc-Hc):28ζ CAR (heavy, as listed by the source limits assumed, chain 1 of 2): as the sequence (heavy, as listed by the source limits assumed, chain 1 of 2) above
Sequence of meHER2(Lc-Hc):28ζ CAR (light, as listed by the source limits assumed, chain 2 of 2): as the sequence (light, as listed by the source limits assumed, chain 2 of 2) above

% of cells Meditope+ Protein L- (upper left quadrant) [1]: 2.6%
% of cells Meditope+ Protein L- (upper left quadrant) [2]: 2.09%
% of cells in the positive gate [3]: 54.4%
% of cells in the positive gate [4]: 57.1%
Substance: meditope-AF647 (peptide)

estimated half-life of the complex [5]: > 80 days
Substance: meditope-protein L fusion (MPL)

% of cells Meditope+ Protein L+ (upper right quadrant) [6]: 42.1%
% of cells Meditope+ Protein L+ (upper right quadrant) [7]: 43.1%
% of cells Meditope- Protein L+ (lower right quadrant) [8]: 4.04%
% of cells Meditope- Protein L+ (lower right quadrant) [9]: 16.1%
% of cells in the positive gate [10]: 51.8%
Substance: protein L
